Laboratory results reported in article PMC5296750.
“And” between values parts separate entries of the source, which are not always exact repeats. Equal values may be shown once.

How the values were obtained:
[1] = biological target: Pyrococcus abyssi minichromosome maintenance protein (PabMCM), full-length, devoid of inteins (Pyrococcus abyssi); test: negative-stain electron microscopy with single particle analysis; 1% uranyl acetate, FEI F20 FEG, 50,000x, MSA classification (IMAGIC-5), 3D reconstruction with EMAN2; map at 22 Å
[2] = biological target: Pyrococcus abyssi minichromosome maintenance protein (PabMCM), full-length, devoid of inteins (Pyrococcus abyssi); test: SEC; Superose 6 10/300 GL, 20 mM HEPES pH 7.4, 150 mM NaCl, 0.3 ml/min; apparent molecular weight estimated against gel-filtration standards
[3] = biological target: Pyrococcus abyssi minichromosome maintenance protein (PabMCM), full-length, devoid of inteins (Pyrococcus abyssi); test: cryo-EM, reference-free 2D classification; Quantifoil grids with thin carbon, plunge-frozen; ~33,000 particles, Relion 2D classification without imposed symmetry

## Pyrococcus abyssi minichromosome maintenance protein (PabMCM), full-length, devoid of inteins (enzyme)
[1]
  stoichiometry N: 8 and 7
[2]
  stoichiometry N: 8
[3]
  stoichiometry N: 8
